The supplement of paper PMC6757056
± gives the standard deviation of the averaged measurements.

B1: library; a variant is named by its letters at N, in order (parent)
chain: GCUGUCACCGGUGCUUGGUACGUUAUAUUCAGCCGGUCUGAUGAGUCUNNNNNNAGACGAAACAGC

Legend:
(6R,S)-folinic acid [1] = variants of: B1; experiment: normalized RNA/DNA level without ligand (relative to sTRSVctl = 100) (log10 (% of sTRSVctl)); HEK293T overexpressing SLC46A1; higher = less ribozyme self-cleavage, higher mRNA level; conditions: without (6R,S)-folinic acid; ligand present: no
How it was run: (§1)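 Ribozyme switch library plasmids with mCherry reporters (eGFP in certain ligand experiments) went into HEK293T cells at 4 µg per 6-well well. Where ligand was used, it was applied 1 h before transfection, and total RNA was extracted with EDTA 72 h later for reverse transcription, amplification, barcoding and sequencing. RNA level is the RNA-to-DNA read ratio normalized to a spiked-in non-cleaving sequence or to the leading sequences, then scaled and log-transformed. Scaling was ×100 with log10, the leading set comprised 25 sequences, and the cutoff was ≥100 DNA reads.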

(6R,S)-folinic acid [2] = variants of: B1; experiment: normalized RNA/DNA level with ligand (relative to sTRSVctl = 100) (log10 (% of sTRSVctl)); HEK293T overexpressing SLC46A1; ligand concentration (+) RNA-Seq: 6 mM; higher = less ribozyme self-cleavage, higher mRNA level; conditions: with (6R,S)-folinic acid; ligand present: yes
How it was run: as §1

Variant | normalized RNA/DNA level without ligand (log10) ((6R,S)-folinic acid [1]) | normalized RNA/DNA level with ligand (log10) ((6R,S)-folinic acid [2])
CGGUUG | 2.026 ± 0.02 | 2 ± 0.065
CGGUUC | 2.02 ± 0.0095 | 2.01 ± 0.07
CGGUUU | 2.033 ± 0.017 | 2.056 ± 0.012
CGUGGG | 1.8506 ± 0.0006 | 1.98 ± 0.036
CGUGGU | 1.998 ± 0.0064 | 1.99 ± 0.029
CGUGGC | 2.02 ± 0.027 | 2 ± 0.073
UGUGCA | 1.9059 ± 0.0006 | 1.99 ± 0.04
UGUGCC | 2.023 ± 0.019 | 2.06 ± 0.029
GGUCGG | 2.053 ± 0.02 | 2.07 ± 0.062
GGUCGA | 2.0344 ± 0.00085 | 2.01 ± 0.026
GGUCGC | 1.952 ± 0.012 | 2 ± 0.032
GGUCGU | 2.034 ± 0.015 | 2.029 ± 0.0084
CGUCUG | 2.008 ± 0.01 | 2.01 ± 0.018
CGUCUU | 2.021 ± 0.0084 | 2 ± 0.039
GGUAAC | 1.99 ± 0.041 | 2.005 ± 0.012
GGUGAG | 1.908 ± 0.012 | 1.99 ± 0.01
GGUGAA | 1.989 ± 0.0081 | 2.011 ± 0.02
AGGGUA | 1.968 ± 0.019 | 2.02 ± 0.0085
AGGGUC | 2.051 ± 0.0057 | 2.03 ± 0.063
AGGGUG | 1.952 ± 0.0024 | 2.04 ± 0.028
AGGGUU | 2.021 ± 0.0045 | 2.01 ± 0.035
UGGUGC | 2.02 ± 0.03 | 2.02 ± 0.044
UGGGCU | 2.06 ± 0.024 | 2.04 ± 0.025

Variant | normalized RNA/DNA level without ligand (log10) ((6R,S)-folinic acid [1]) | normalized RNA/DNA level with ligand (log10) ((6R,S)-folinic acid [2])
UGGGCA | 1.962 ± 0.0051 | 2.01 ± 0.032
AGUACU | 2.008 ± 0.0088 | 2.02 ± 0.043
AGUACC | 2.07 ± 0.0045 | 2.04 ± 0.044
AGUACA | 1.983 ± 0.0056 | 2 ± 0.038
GGGUUC | 2.027 ± 0.006 | 2.001 ± 0.0053
GGGUUU | 2.029 ± 0.015 | 2.04 ± 0.036
GGGUUA | 2.052 ± 0.0032 | 2.034 ± 0.01
GGGUGU | 2.025 ± 0.011 | 2.06 ± 0.049
GGGUGG | 2.056 ± 0.0092 | 2.04 ± 0.043
GGUUAC | 1.999 ± 0.0035 | 2 ± 0.038
GGUUAA | 1.987 ± 0.0045 | 2.02 ± 0.031
CGGUCC | 2.066 ± 0.013 | 2.03 ± 0.033
CGGUCG | 2.042 ± 0.0075 | 2.04 ± 0.021
CGGUCA | 2.005 ± 0.014 | 1.98 ± 0.064
CGGUCU | 2.1 ± 0.035 | 2.05 ± 0.049
GGGGCG | 2.073 ± 0.016 | 2.06 ± 0.045
GGGGCA | 2.054 ± 0.0064 | 2.02 ± 0.025
GGGGCU | 2.079 ± 0.017 | 2.055 ± 0.0086
AGGUAA | 1.95 ± 0.024 | 1.98 ± 0.02
AGGUAC | 1.982 ± 0.0027 | 1.995 ± 0.0077
AGGUAG | 1.912 ± 0.0057 | 2 ± 0.077
AGGUAU | 2.009 ± 0.0096 | 2.04 ± 0.052
GGGUCA | 2.078 ± 0.0065 | 2.09 ± 0.053

Variant | normalized RNA/DNA level without ligand (log10) ((6R,S)-folinic acid [1]) | normalized RNA/DNA level with ligand (log10) ((6R,S)-folinic acid [2])
GGGUCU | 2.064 ± 0.0032 | 2.06 ± 0.018
GGGUCC | 2.05 ± 0.022 | 2.06 ± 0.04
AGUCUA | 1.992 ± 0.0093 | 2.02 ± 0.05
AGUCUU | 2.017 ± 0.0028 | 1.99 ± 0.028
AGUCUC | 2.03 ± 0.016 | 2.02 ± 0.041
AGUCUG | 1.972 ± 0.0057 | 2.04 ± 0.048
UGUCGA | 1.904 ± 0.0056 | 1.994 ± 0.013
UGUCGC | 1.966 ± 0.0063 | 2.024 ± 0.0019
CGGGGG | 1.91 ± 0.034 | 2.05 ± 0.064
CGGGGU | 2.039 ± 0.015 | 2.07 ± 0.024
CGGGGA | 2.104 ± 0.0034 | 2.11 ± 0.065
CGGGGC | 2.03 ± 0.023 | 2.003 ± 0.014
GGUCAC | 1.99 ± 0.031 | 2 ± 0.039
GGUCAG | 2.039 ± 0.018 | 2.04 ± 0.035
GGUCAA | 1.99 ± 0.028 | 2 ± 0.024
GGUCAU | 2.01 ± 0.025 | 2.01 ± 0.044
UGUAUA | 1.953 ± 0.0013 | 2.01 ± 0.022
GGUGUC | 2.051 ± 0.019 | 2.01 ± 0.028
GGUGUA | 1.972 ± 0.01 | 2.01 ± 0.02
GGUGUU | 2.029 ± 0.0064 | 2.02 ± 0.041
GGUGUG | 1.98 ± 0.014 | 2.04 ± 0.034
AGGGGG | 1.9815 ± 0.00032 | 2.05 ± 0.064
AGGGGU | 1.98 ± 0.025 | 2.02 ± 0.039

Variant | normalized RNA/DNA level without ligand (log10) ((6R,S)-folinic acid [1]) | normalized RNA/DNA level with ligand (log10) ((6R,S)-folinic acid [2])
AGGGGA | 2.001 ± 0.0065 | 2.04 ± 0.058
AGGGGC | 2.047 ± 0.0056 | 2.04 ± 0.053
AGUAGG | 1.897 ± 0.0057 | 2.02 ± 0.021
AGUAGU | 1.943 ± 0.0095 | 2.012 ± 0.019
AGUAGC | 1.986 ± 8.8e-05 | 2 ± 0.039
AGUAGA | 1.943 ± 0.0031 | 2.018 ± 0.0096
GGUGGU | 2.053 ± 0.016 | 2.03 ± 0.031
GGUGGC | 1.98 ± 0.023 | 2.02 ± 0.037
GGUGGG | 2.034 ± 0.014 | 2.059 ± 0.017
UGGGGG | 1.8 ± 0.017 | 2.008 ± 0.018
UGGGGA | 1.836 ± 0.0073 | 1.99 ± 0.036
UGGGGC | 2.024 ± 0.01 | 2.02 ± 0.023
UGGGGU | 1.94 ± 0.026 | 2.0251 ± 0.00068
CGUAGU | 2.011 ± 0.0076 | 2 ± 0.034
CGUAGA | 1.9919 ± 0.00011 | 1.99 ± 0.043
CGUAGC | 2.03 ± 0.023 | 2.03 ± 0.022
CGUAGG | 1.829 ± 0.015 | 1.979 ± 0.013
AGUGCA | 1.97 ± 0.025 | 1.996 ± 0.016
AGUGCC | 2.072 ± 0.014 | 2.07 ± 0.035
AGUGCU | 2.01 ± 0.0069 | 2.03 ± 0.027
AGUGCG | 1.849 ± 0.017 | 2.01 ± 0.062
AGGGCU | 2.022 ± 0.0078 | 2.05 ± 0.024
AGGGCG | 1.962 ± 0.008 | 2.02 ± 0.027

Variant | normalized RNA/DNA level without ligand (log10) ((6R,S)-folinic acid [1]) | normalized RNA/DNA level with ligand (log10) ((6R,S)-folinic acid [2])
AGGGCA | 2.033 ± 0.02 | 2.03 ± 0.042
AGGGCC | 2.07 ± 0.023 | 2.06 ± 0.06
GGGGGU | 2.037 ± 0.0098 | 2.05 ± 0.052
GGGGGA | 2.057 ± 0.02 | 2.05 ± 0.043
GGGGGG | 2.045 ± 0.019 | 2.04 ± 0.061
GGGGGC | 1.94 ± 0.038 | 2.03 ± 0.022
AGUUAU | 1.979 ± 0.0072 | 2.02 ± 0.018
AGUUAA | 1.9569 ± 0.00052 | 1.99 ± 0.024
AGUUAG | 1.908 ± 0.017 | 2 ± 0.038
AGUUAC | 2.007 ± 0.0061 | 1.992 ± 0.013
UGUGGC | 1.97 ± 0.022 | 2.019 ± 0.0063
UGGUCA | 1.9757 ± 0.0013 | 2.04 ± 0.062
UGGUCC | 2.039 ± 0.0085 | 2.035 ± 0.016
UGGUCU | 1.994 ± 0.015 | 2.0325 ± 0.0019
UGGUCG | 1.844 ± 0.015 | 1.99 ± 0.021
GGUCCG | 2.04 ± 0.018 | 2.03 ± 0.03
GGUCCC | 2.043 ± 0.016 | 2.01 ± 0.027
GGUCCU | 2.09 ± 0.0075 | 2.09 ± 0.062
CGUACG | 2.018 ± 0.011 | 2.0285 ± 0.0013
CGUACU | 2.0544 ± 0.00062 | 2.043 ± 0.0063
CGUACC | 2.1 ± 0.0079 | 2.021 ± 0.016
CGUACA | 2.01 ± 0.0077 | 2.041 ± 0.02
GGUAGC | 1.923 ± 0.015 | 2.017 ± 0.013
